# From patent EP4631959A2, “NOVEL MINIGASTRIN-DERIVED CHOLECYSTOKININ 2 RECEPTOR BINDING MOLECULES FOR IMAGING AND TARGETED RADIOTHERAPY” (priority 2022, dated 2024)
# Where two headings read alike, the source gives them in different places. Starred links: 1 amine or outer side, 2 acyl side, 3 side chain; linkers in the order of their positions; H or OH if unused. Non-standard residues stand in square brackets, D forms with d. Residues, ends and D or L forms follow the SMILES beside them. *: point of attachment. Benzoyl(4-SiFtBu2) = CC(C)(C)[Si](F)(c1ccc(C(=O)*)cc1)C(C)(C)C; DOTA = O=C(O)CN1CCN(CC(=O)O)CCN(CC(=O)*)CCN(CC(=O)O)CC1; PEG12 = NCCOCCOCCOCCOCCOCCOCCOCCOCCOCCOCCOCCOCCC(=O)O; d(γGlu) = O=C(O)[C@@H](CCC(=O)[*:2])N[*:1]; PEG8 = NCCOCCOCCOCCOCCOCCOCCOCCOCCC(=O)O; 1Nal = N[C@@H](Cc1cccc2ccccc12)C(=O)O; Hyp = O=C(O)[C@@H]1C[C@@H](O)CN1; dCit = NC(=O)NCCC[C@@H](N)C(=O)O; PEG5 = NCCOCCOCCOCCOCCOCCC(=O)O; NMeNle = CCCC[C@H](NC)C(=O)O; PEG4 = NCCOCCOCCOCCOCCC(=O)O; dDap = NC[C@@H](N)C(=O)O
# Experiments:
# [1] = n-Octanol-PBS distribution coefficient (logD7.4); assay type: physicochemical; details: pH = 7.4, ^177Lu-labeled
# Method: Approximately 1 MBq of the labeled tracer was dissolved in 1 mL of a 1/1 mixture (v/v) of phosphate buffered saline (PBS, pH = 7.4) and n-octanol in an Eppendorf tube (1.5 mL). After vigorous mixing of the suspension for 3 min at rt, the vial was centrifuged at 9,000 rpm for 5 min (Biofuge 15, Heraeus Sepatech, Osterode, Germany) and 200 µL aliquots of both layers were measured in a γ-counter. The experiment was repeated at least five times.
# [2] = target: T1, Human serum albumin (HSA) (Homo sapiens, UniProt P02768); assay: Determination of HSA binding on a Chiralpak HSA column; assay type: in vitro ADME; details: Tab. 8; metal not stated (Fig. 18: ^natLu)
# T1 construct: purchased Daicel, Tokyo, Japan H13H-2433
# Method: Human serum albumin (HSA) binding of the CCK-2R-targeted compounds was determined as reported by Valko et al., using a Chiralpak HSA column (50 x 3 mm, 5 µm, H13H-2433, Daicel, Tokyo, Japan) at a constant flow rate of 0.5 mL/min at rt. Therefore, an aq. solution of NH4OAc (pH = 6.9, 50 mM) as mobile phase A and isopropanol as mobile phase B were freshly prepared. In order to calibrate the column prior to the experiments, the retention times of nine reference substances with a HSA binding in the range of 13 to 99% were determined using a gradient of 100% A (0 to 3 min), followed by 80% A (3 to 40 min). Furthermore, all substances tested, were dissolved in a mixture (1/1, v/v) of A and B reaching a final concentration of 0.5 mg/mL. The HSA binding of all rhCCK ligands tested, was determined using the same gradient as for the calibration probes. The non-linear regression of the calibration experiments and the CCK-2R ligands (Fig. 29) was established using the OriginPro 2016G software (Northampton, United States).
# [3] = target: T2, CCK-2R (Rattus norvegicus, UniProt P30553); assay: Determination of IC50: CCK-2R affinity on AR4-2J cells, competition with [^177Lu]Lu-DOTA-PP-F11N; assay type: binding; details: AR4-2J cells
# T2 construct: The CCK-2R expressing rat pancreatic tumor cells AR4-2J; host or cells: AR4-2J rat pancreatic tumor cells
# T2 sequence (P30553 1-452): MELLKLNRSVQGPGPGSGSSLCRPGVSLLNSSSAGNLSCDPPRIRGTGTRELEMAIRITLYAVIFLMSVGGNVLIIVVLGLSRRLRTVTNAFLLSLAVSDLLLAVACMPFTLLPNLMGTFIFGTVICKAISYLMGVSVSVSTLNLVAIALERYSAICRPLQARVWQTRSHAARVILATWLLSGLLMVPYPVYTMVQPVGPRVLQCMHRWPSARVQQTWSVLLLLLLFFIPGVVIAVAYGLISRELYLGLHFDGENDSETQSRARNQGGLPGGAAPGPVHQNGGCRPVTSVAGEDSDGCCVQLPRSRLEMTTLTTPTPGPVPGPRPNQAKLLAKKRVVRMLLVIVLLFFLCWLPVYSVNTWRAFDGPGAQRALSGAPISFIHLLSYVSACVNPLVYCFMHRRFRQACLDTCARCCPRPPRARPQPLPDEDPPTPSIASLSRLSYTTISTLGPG
# Summary of the method: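 Competitive displacement of 0.3 pmol/well [177Lu]Lu-DOTA-PP-F11N by compounds (10^-10 to 10^-4 M) on AR4-2J cells in BSA-supplemented medium, 3 h at 37 °C. Free label was collected from medium plus PBS rinse, and cell-bound label was recovered with 1 M NaOH, both measured by γ-counter. Each IC50 was determined twice, in triplicate.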
# [4] = ^natLu-labeled, read-out: IC50 [nM] (n = 3), ^natLu-labeled
# [5] = read-out: IC50 [nM] (n = 3), ^natGa-labeled, ^natGa-labeled
# [6] = read-out: IC50 [nM] (n = 3), ^natLu-labeled, ^natLu-labeled
# T1 sequence (P02768 25-609): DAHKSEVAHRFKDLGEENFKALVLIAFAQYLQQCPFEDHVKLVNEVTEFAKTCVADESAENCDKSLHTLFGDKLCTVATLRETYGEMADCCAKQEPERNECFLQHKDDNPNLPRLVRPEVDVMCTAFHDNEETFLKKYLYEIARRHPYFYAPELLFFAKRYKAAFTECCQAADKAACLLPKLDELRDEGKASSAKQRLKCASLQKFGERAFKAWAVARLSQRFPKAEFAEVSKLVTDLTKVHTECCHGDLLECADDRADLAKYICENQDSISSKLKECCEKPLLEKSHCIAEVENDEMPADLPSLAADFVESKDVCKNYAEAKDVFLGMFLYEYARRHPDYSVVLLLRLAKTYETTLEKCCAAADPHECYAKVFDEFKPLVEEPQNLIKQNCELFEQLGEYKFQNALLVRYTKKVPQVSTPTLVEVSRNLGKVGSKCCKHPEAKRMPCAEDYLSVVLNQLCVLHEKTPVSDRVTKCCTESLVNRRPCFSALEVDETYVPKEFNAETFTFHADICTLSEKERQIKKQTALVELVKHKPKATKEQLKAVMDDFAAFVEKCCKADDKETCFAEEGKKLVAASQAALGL
Compound,"logD7.4 (n ≥ 5), ^177Lu-labeled [1]",HSA binding [%] [2],"IC50 [3, 4]","IC50 [3, 5]","logD7.4 (n ≥ 5), ^177Lu-labeled ([1]; listed as [^nat/177Lu]Lu-DOTA-rhCCK-75)","IC50 [3, 6]"
"CCCC[C@@H](C(=O)N[C@@H](CC(=O)O)C(=O)N[C@@H](Cc1cccc2ccccc12)C(N)=O)N(C)C(=O)[C@H](Cc1c[nH]c2ccccc12)NC(=O)CCOCCOCCOCCOCCNC(=O)CC[C@@H](NC(=O)CCOCCOCCOCCOCCOCCNC(=O)CC[C@@H](NC(=O)[C@@H](CNC(=O)c1ccc([Si](F)(C(C)(C)C)C(C)(C)C)cc1)NC(=O)CN1CCN(CC(=O)O)CCN(CC(=O)O)CCN(CC(=O)O)CC1)C(=O)O)C(=O)O [DOTA-rhCCK-68, DOTA-dap(SiFA)-γ-glu-(PEG)4-γ-glu-(PEG)3-Trp-(N-Me)Nle-Asp-1-Nal-NH2]",−1.65 ± 0.09,91.2%,15.4 ± 1.1 nM,36.9 ± 5.4 nM,,
"CCCC[C@@H](C(=O)N[C@@H](CC(=O)O)C(=O)N[C@@H](Cc1cccc2ccccc12)C(N)=O)N(C)C(=O)[C@H](Cc1c[nH]c2ccccc12)NC(=O)CCOCCOCCOCCOCCNC(=O)CC[C@@H](NC(=O)CCOCCOCCOCCOCCOCCOCCOCCOCCOCCOCCOCCOCCNC(=O)[C@@H](CNC(=O)c1ccc([Si](F)(C(C)(C)C)C(C)(C)C)cc1)NC(=O)CN1CCN(CC(=O)O)CCN(CC(=O)O)CCN(CC(=O)O)CC1)C(=O)O [DOTA-rhCCK-74, DOTA-dap(SiFA)-(PEG)11-γ-glu-(PEG)3-Trp-(N-Me)Nle-Asp-1-Nal-NH2] ({DOTA}-[dDap](Benzoyl(4-SiFtBu2))[PEG12][d(γGlu)][PEG4]W[NMeNle]D[1Nal]-NH2)",−1.19 ± 0.07,87.2%,12.1 ± 1 nM,,,
"CCCC[C@@H](C(=O)N[C@@H](CC(=O)O)C(=O)N[C@@H](Cc1cccc2ccccc12)C(N)=O)N(C)C(=O)[C@H](Cc1c[nH]c2ccccc12)NC(=O)CCOCCOCCOCCOCCNC(=O)CC[C@@H](NC(=O)CCOCCOCCOCCOCCOCCOCCOCCOCCNC(=O)[C@@H](CNC(=O)c1ccc([Si](F)(C(C)(C)C)C(C)(C)C)cc1)NC(=O)CN1CCN(CC(=O)O)CCN(CC(=O)O)CCN(CC(=O)O)CC1)C(=O)O [DOTA-rhCCK-73, DOTA-dap(SiFA)-(PEG)7-γ-glu-(PEG)3-Trp-(N-Me)Nle-Asp-1-Nal-NH2] ({DOTA}-[dDap](Benzoyl(4-SiFtBu2))[PEG8][d(γGlu)][PEG4]W[NMeNle]D[1Nal]-NH2)",−1.02 ± 0.06,90.4%,15.6 ± 0.7 nM,,,
"CCCC[C@@H](C(=O)N[C@@H](CC(=O)O)C(=O)N[C@@H](Cc1cccc2ccccc12)C(N)=O)N(C)C(=O)[C@H](Cc1c[nH]c2ccccc12)NC(=O)CCOCCOCCOCCOCCNC(=O)CC[C@@H](NC(=O)CCOCCOCCOCCOCCOCCOCCOCCOCCOCCOCCOCCOCCNC(=O)CC[C@@H](NC(=O)[C@@H](CNC(=O)C[N+](C)(C)Cc1ccc([Si](F)(C(C)(C)C)C(C)(C)C)cc1)NC(=O)CN1CCN(CC(=O)O)CCN(CC(=O)O)CCN(CC(=O)O)CC1)C(=O)O)C(=O)O [DOTA-rhCCK-75, DOTA-dap(SiFAlin)-γ-glu-(PEG)11-γ-glu-(PEG)3-Trp-(N-Me)Nle-Asp-1-Nal-NH2]",−1.15 ± 0.05,90.9%,19.2 ± 1.6 nM,,-1.15 ± 0.05,
"CCCC[C@@H](C(=O)N[C@@H](CC(=O)O)C(=O)N[C@@H](Cc1cccc2ccccc12)C(N)=O)N(C)C(=O)[C@H](Cc1c[nH]c2ccccc12)NC(=O)CCOCCOCCOCCOCCNC(=O)CC[C@@H](NC(=O)CCOCCOCCOCCOCCOCCNC(=O)[C@@H](CNC(=O)c1ccc([Si](F)(C(C)(C)C)C(C)(C)C)cc1)NC(=O)CN1CCN(CC(=O)O)CCN(CC(=O)O)CCN(CC(=O)O)CC1)C(=O)O [DOTA-rhCCK-67, DOTA-dap(SiFA)-(PEG)4-γ-glu-(PEG)3-Trp-(N-Me)Nle-Asp-1-Nal-NH2] ({DOTA}-[dDap](Benzoyl(4-SiFtBu2))[PEG5][d(γGlu)][PEG4]W[NMeNle]D[1Nal]-NH2)",−1.05 ± 0.09,92.9%,13 ± 1.1 nM,49.5 ± 3.7 nM,,
"CCCC[C@@H](C(=O)N[C@@H](CC(=O)O)C(=O)N[C@@H](Cc1cccc2ccccc12)C(N)=O)N(C)C(=O)[C@H](Cc1c[nH]c2ccccc12)NC(=O)CCOCCOCCOCCOCCNC(=O)CC[C@@H](NC(=O)CCOCCOCCOCCOCCOCCOCCOCCOCCNC(=O)CC[C@@H](NC(=O)[C@@H](CNC(=O)c1cc(C(=O)O)cc([Si](F)(C(C)(C)C)C(C)(C)C)c1)NC(=O)CN1CCN(CC(=O)O)CCN(CC(=O)O)CCN(CC(=O)O)CC1)C(=O)O)C(=O)O [DOTA-rhCCK-72, DOTA-dap(SiFA-ipa)-γ-glu-(PEG)7-γ-glu-(PEG)3-Trp-(N-Me)Nle-Asp-1-Nal-NH2]",−2.32 ± 0.03,89.3%,52.3 ± 6.2 nM,,,
"CCCC[C@@H](C(=O)N[C@@H](CC(=O)O)C(=O)N[C@@H](Cc1cccc2ccccc12)C(N)=O)N(C)C(=O)[C@H](Cc1c[nH]c2ccccc12)NC(=O)CCOCCOCCOCCOCCNC(=O)CC[C@@H](NC(=O)[C@@H]1C[C@@H](O)CN1C(=O)[C@@H]1C[C@@H](O)CN1C(=O)[C@@H]1C[C@@H](O)CN1C(=O)[C@@H](CCCNC(N)=O)NC(=O)[C@@H](CCCNC(N)=O)NC(=O)[C@@H](CCCNC(N)=O)NC(=O)CC[C@@H](NC(=O)[C@@H](CNC(=O)c1ccc([Si](F)(C(C)(C)C)C(C)(C)C)cc1)NC(=O)CN1CCN(CC(=O)O)CCN(CC(=O)O)CCN(CC(=O)O)CC1)C(=O)O)C(=O)O [DOTA-rhCCK-85, DOTA-dap(SiFA)-γ-glu-(cit)3-(Hyp)3-γ-glu-(PEG)3-Trp-(N-Me)Nle-Asp-1-Nal-NH2] ({DOTA}-[dDap](Benzoyl(4-SiFtBu2))[d(γGlu)][dCit][dCit][dCit][Hyp][Hyp][Hyp][d(γGlu)][PEG4]W[NMeNle]D[1Nal]-NH2)",−1.95 ± 0.09,90.3%,,,,12.9 ± 0.3 nM
"CCCC[C@@H](C(=O)N[C@@H](CC(=O)O)C(=O)N[C@@H](Cc1cccc2ccccc12)C(N)=O)N(C)C(=O)[C@H](Cc1c[nH]c2ccccc12)NC(=O)CCOCCOCCOCCOCCNC(=O)CC[C@@H](NC(=O)[C@@H]1C[C@@H](O)CN1C(=O)[C@@H]1C[C@@H](O)CN1C(=O)[C@@H]1C[C@@H](O)CN1C(=O)[C@@H]1C[C@@H](O)CN1C(=O)[C@@H]1C[C@@H](O)CN1C(=O)[C@@H]1C[C@@H](O)CN1C(=O)[C@@H]1C[C@@H](O)CN1C(=O)[C@@H]1C[C@@H](O)CN1C(=O)CC[C@@H](NC(=O)[C@@H](CNC(=O)c1ccc([Si](F)(C(C)(C)C)C(C)(C)C)cc1)NC(=O)CN1CCN(CC(=O)O)CCN(CC(=O)O)CCN(CC(=O)O)CC1)C(=O)O)C(=O)O [DOTA-rhCCK-86, DOTA-dap(SiFA)-γ-glu-(Hyp)8-γ-glu-(PEG)3-Trp-(N-Me)Nle-Asp-1-Nal-NH2] ({DOTA}-[dDap](Benzoyl(4-SiFtBu2))[d(γGlu)][Hyp][Hyp][Hyp][Hyp][Hyp][Hyp][Hyp][Hyp][d(γGlu)][PEG4]W[NMeNle]D[1Nal]-NH2)",−1.86 ± 0.06,88.1%,,,,10 ± 1.4 nM
"CCCC[C@H](NC(=O)[C@H](Cc1c[nH]c2ccccc12)NC(=O)CNC(=O)[C@H](Cc1ccc(O)cc1)NC(=O)[C@H](C)NC(=O)CC[C@@H](NC(=O)CC[C@@H](NC(=O)CC[C@@H](NC(=O)CC[C@@H](NC(=O)CC[C@@H](NC(=O)CC[C@@H](NC(=O)CC[C@@H](NC(=O)[C@@H](CNC(=O)c1ccc([Si](F)(C(C)(C)C)C(C)(C)C)cc1)NC(=O)CCC(C(=O)O)N1CCN(CC(=O)O)CCN(CC(=O)O)CCN(CC(=O)O)CC1)C(=O)O)C(=O)O)C(=O)O)C(=O)O)C(=O)O)C(=O)O)C(=O)O)C(=O)N[C@@H](CC(=O)O)C(=O)N[C@@H](Cc1ccccc1)C(N)=O (some centres unmarked) [DOTAGA-MG-SiFA-22, DOTAGA-dap(SiFA)-γ-glu-γ-F11N]",−2.16 ± 0.09,,,,,29.5 ± 1.9 nM
